A protein production outcome set (Wang et al. 2014)

Test: label from the status in PepcDB records
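Also: failed if final PepcDB status was selected cloned or expressed and not failed if soluble or beyond.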

Sequence	protein production
MKAESSNESFIIGQRVHSLNDSRRVGTVKYVGDVEGYSGTWIGVDWDQDGDGKHNGSVNGVFYFNGRSQSSASFVRSQNLSRGITLLQALELRYRTISTKDEEDEMYVLSAGNRRVSIQLLGGDKIQDKLSRFEELTSASLSYLGVSSLGVSSDLGSILPNLKLLDLTGNLISDWEEIGALCEQLPALTTLNLSCNSLSSDIKSLPQLKNIRVLVLNNSGLSWTQVEILRRSLPGIEELHLMGNMISTITSTSSSDDQAFNSLRLLNLDDNCISDWSEVLKLSQLPCLEQLYLNKNKLSRIFQSVNGTESSEKGSDPFPSLSCLLLGANNIGDLASVDALNGFPQLVDIRLSENPISDPVRGGVPRFVLVARLTKVQVLNGSEVRAREKKDSEIRYVRMVMSKLNDKSGEIELLHPRFYELKKLHGIEDERASAENSGPKNIASGLISITLKCVGPSMGEKPHLTKKLPGSITVGKLKILSENFFKLKSIKPRLFLQEEGSPFPTALDDETATLLDVGICDGSTLLVDEES	failed
STVVEIKSQDQFTQLTTTNAANKLIVLYFKAQWADPCKTMSQVLEAVSEKVRQEDVRFLSIDADEHPEISDLFEIAAVPYFVFIQNGTIVKEISAADPKEFVKSLEILSNASASLANNAKGPKSTSDEESSGSSDDEEDETEEEINARLVKLVQAAPVMLFMKGSPSEPKCGFSRQLVGILREHQIRFGFFDILRDENVRQSLKKFSDWPTFPQLYINGEFQGGLDIIKESIEEDPEYFQHALQ	not failed
MPLHPTSQDCVVEQSVDALRERERRFRMLADNMSQLAWTASPRGQVQWYNERWYAYTGATLEAMVALGWRSVVHPEHRERVMARLQYCFATGSVWEDTFALRGKDGAFNWFLSRALPMRDAQGHITHWLGTHTDITAQVNAEEALRELNESLELRVAERTRELAKANELLQVEIAERAQAEEVLRHAQKMDAIGQLTGGIAHDFNNMLSGVLGALDMIRLRIGAQRFGEVDRYVDAAVSSANRAAALTQRLLTFARRQSLSVGTVDINCMVRSMEELLRGTVGNHAQLHIELEEGLSAIQTDEHQLENALLNLVINARDAVPVAGLISVRSQALRLVAQEGALAAGDYVRLSVEDNGCGIAQDVIDRVFDPFFTTKPVGQGTGLGLSMVYGFIKQTGGHVQIKSEQGQGTRICLYLPCGAATA	failed
MSVKMKKCSREDLQTLQQLSIETFNDTFKEQNSPENMKAYLESAFNTEQLEKELSNMSSQFFFIYFDHEIAGYVKVNIDDAQSEEMGAESLEIERIYIKNSFQKHGLGKHLLNKAIEIALERNKKNIWLGVWEKNENAIAFYKKMGFVQTGAHSFYMGDEEQTDLIMAKTLILEHHHHHH	not failed
MVKQCSPAHNIFERVSKCYVEKQQPHDVSIPNIRLTVSATGLAFGSVHQANANQNQIACFYFSCNFSSKSNHHQSQAIVREEIQKNLRPVRIVGHQSMASSWRRSIGNVRSFIGNSMGGLRGGQSAASWVVAGTIAYFLWIKPEQDLKKEQEARAALAMADTNQYVEKRKPIADPQVTGLIYGNKNGTDKSED	failed
MVPCWNHGNITRSKAEELLSRTGKDGSFLVRASESISRAYALCVLYRNCVYTYRILPNEDDKFTVQASEGVSMRFFTKLDQLIEFYKKENMGLVTHLQYPVPLEEEDTGDDPEEDTVESVVSPPELPPRNIPLTASSCEAKEVPFSNENPRATETSRPSLSETLFQRLQSMDTSGLPEEHLKAIQDYLSTQLAQDSEFVKTGSSSLPHLKKLTTLLCKELYGEVIRTLPSLESLQRLFDQQLSPGLRPRPQVKG	not failed
AIAPLGEEKNGKCDGSIYVNNPHLDSMTDDILYHFNLGTSTHDLPKMFGDVKFVCVGGSPWRMKSFTEYIAKELGLVDPNAEYPNICAGTDRYAMYKVGPVLSVSHGMGIPSISIMLHELIKLLYHARCTDVTVVRIGTSGGIGLKPGTVVVTKQSVDSLFQPHLEQTILGKPVVRSTELDKELAEELLQCGKELGEFEIIIGNTMCTLDFYEGSNVFEDKCTRIAAYSFKIHVL	failed
MSLDTGVTSVMFVERSLNEIRFWSRIMKEHSFFLRLGFRCEDTQLIEEANQFYRLFEHIEQIAHSYTNETDPEQIKRFNAEVQQAATNIWGFKRKILGLILTCKLPGQNNFPLLVDHTSREADYFRKRLIQLNEGKLDALPDAIIKENVFFLRIMADHAKFIGHLLDPSERKLVDTARNFSNDFDELMYQAIDLESMKPQSQTAPLLDQFLDQNRVSVASLRDFKKTARDLIEQCKIKSIIHPLLADHVFREADRFLEIIDMYDVHLTNIQSQPREGHHHHHH	not failed
MRAGFFVGILGLAGAILQGANVTEAVGSELVLFPSGGGLSAIAAIVALLTAAVLVAVGIFTGYPIATAFTVTGAVVGVGLAMGGQPATAKYIEIVSLWVLTPFVGGGIAFGTAWSLRHEATTEERLVPLLGGLVGVILANIEFVLLAPGSEQASVARAVARAAGTPIFPSMVVVTLLIGVLAGGLLYLDIRADAAAGQRHFLLVMGGLVAFSAGGSQVGLALGPLVPLLGEGPTAAIPITGVLLFGGLGLLVGSWTGAPRMIKALAQDYSSLGPRRSIGALIPSFIIAQAAVFFGIPVSFNEIIVSAIVGSGAAAGGGEVSREKMGKTVLAWIGSLALAFALSYGLFWIIDAAL	failed
IVMADWLKIRGTLKSWTKLWCVLKPGVLLIYKTQKNGQWVGTVLLNACEIIERPSKKDGFCFKLFHPLEQSIWAVKGPKGEAVGSITQPLPSSYLIIRATSESDGRCWMDALELALK	not failed
MPIIGTKELITCDNTDFIHSGNDADRSGFILSVPVFGQDGSLRGSVSAIMLTSALRKLLPGSDYVIVNSGYGFESDQHKMSTALAADSRAFTAADPNLIYSEVIPLSLNDPRSAWRLWAGFPNSRFDNNMDVQSVRQFELAGYAAVAVVTLLALACWYAIGRTMTMQVEAAETLERRVEQRTAQIQHLATHDILTGLPNRGLLADTMDEALRSLRDDEKLAVHCVDLDRFKPVNDTLGHPIGDQLLGAVAKRLKHHAGETAMVARIGGDEFVILQLLLDGNDEAGVLASRVIHALSDEFSIQGHKINIGGSIGIAVFPDDGQNSETLIRNADLALYKAKMEGRGTCRSFEPGMDARLQERRQLESELALGVKKEQFVLHYQPLHDAKTSQLTGFEALVRWNHPRLGLLAPSEFIQLAEETGAIDALGEWIMRRACADAAKWPQPVKVAVNLSPAQFKQQGLSLQVAAALAASGLLPSRLELEITESVLLANNENTLNTLYSLRDLGISIAMDDFGTGYSSLSYLRSFPFNRIKIDRSFVSLMCESSESRAIVKAVAELGTTLGMTTTAEGVETEDQYRLVKENGCTDVQGWYFGRPMPASELHTLFEQPEALTA	failed
MMNLPKNIQQPLSLIYLDANATTQVLPQAASAALSTMETLFGNPSSSHISGLQAKQIVDKTRQQAKRIVGAAEGKIIFTSGATEGIQTAILSALVNVKKTLNKSLNNKSYSLLYGATEHKAVPESLKHWNKILEINAEIKAIPVDEKGQLDMAFIAKEVPNALMVCTMAVNNETGVYQDISLLDQTIRTNNPNVAWMVDCVQALGKTDLVLAQTSIDYAPFSGHKLYAPKGIGFMYVKEKAPFTAFIAGGGQESGLRSGTENLPGLAALSEIFSMLLGESEASFTPIKTLHLYRQQLVSALTQAFPEITFNHSFENSVATTLNFAIPGFSSKEIMDLFDAANIRVSSGSACSSKVTRSFVLDAMGLPAWQSESAIRMSFGPAMTQTEIDIACSRIVSAAQALVQSCLTLDKKNIDTQTMNTSSTTNKTELDGLVQFKAGGSCSWLYVDKKTRSAVFIDPLSEVSERLQTLLTCRGLNLVAVIDTHGHADHKSCRNGIAKKFLAEQQTEYLGWPAGAQTTTIHGQTFQYLILGDKWLIKVATPGHTDDSMSLLLCDPVTDSAEKLQVHYAFCGDLILMDSIGRSNFSTSSAPAMYSSLKLMKSLIGNNSLICPSHDYHNEFTTCLETEMKRNSLLRQVINSEIDIEEFTSKKIKMDKDIINESGSEIMCGALIGACQKVVVREYDSASLTKAVKKSSDMKLIDIREPHEYALQHDEKFTSNVPLTRLVQFVKEQQQNKEQEFVLVCRSGGRSQLAAQALARLGFENVGHLKGGYALHQY	failed
MTALLTRVWACTLCQAELPFPPKPILQASSQARILIAGQAPGVKTHHKGIPFDDASGERLRAWLNVSREQFYDPALFAIVPMGFCFPGNIERKGKKQGDKPPRPECAATWHKALLALMPNIELVIVLGQYAMDYHLSRLLMDNMHKNRGFNSTPLAAAHTIGKATSNKKITLTQAVEQWPLYWPQLMVMPHPSPRNNLWLKQHPEFEQHLIPTLRSRISSLLT	failed
MLRIFIPTSNGKISRRRYIFSFILINFIFAFLIIFFNDGEAGFLVIVSTIVLHYLVINMNCQRLRDSGFIYIKTYVFGTLAVYIISIITMIAEDFACSGNGSMIFLICYFSTFSMLMLAPTDSSKQ	failed
MTDSTTELTPAAPVSWPDGKTCAVAFTFDVDAESPLLTTDPAFADRMGTMSHQAYGPLVGVPRLLGILDEFNVPGTFFVPGYTAHRHPEPIRSIARAGHEIAHHGYLHESLVGADEDTERKILTRGIEALEEVAGVHPVGYRAPMWEMNWHTPKLLAEFGFLYDSTLMDSDHPYELAVGDGSLVELPVSWALDDWQQYCFVPDFSGTGLIETPAKAIELWRAELNAMRDIGGAWVLTNHPFLSGRPGRAAALREFIAEVCAMDDVWVAGMSQIAEHVRAQKLTPRTLTRPELTPVAE	not failed
MADQPESPSRPRGGLRRLLPWSGADTARTATTVHTVINGERGGQGLAAHQLVPAKAKSGAHDPAAATALLIRLFSHAAHPEALLLAFAEGITSLHGELGDMGVRLSAAYAAGDWPGYGRALRQLIDKYIRTIDIGDSLAEGRTEAEQLRDLLRHALGNALATLLQRSPELAEEAQTLASALRHWRPGHELLTLEQRLRELSHQIGLRAEDASEQQNLLLGLFDLLLENVGELLDDRSWLQGQISVVRQLISGPLDVSSIEQARGTLREVIYKQGLLKQGIAESKTAMREMMVSFVDRLDGMATSTGEYHDRVAGYSQAIGEARGIPDLNRLLQDLLQDTAGVQAQALAARDELLSARRQVEDCEQRIASLEQELKDVAGLVREDQLTGALNRRGFEELFQREAVRTQRSGQPLCVAMLDLDDFRRLNETHGHAGGDAALRHTVDVAKAVLRTTDAIARFGGEEFVLLLPDSTIFEASAAVIRLQRALSQRSLLHDDVRVFISFSAGVALRGTDETQDDVIRRADRAMYDAKSAGKNRVINAD	failed
MLRYILLKIDIGKEGTDMAAIQAKNGPTEKLSLFLLTWPIFLEVFLFMLMGIADTFMLSALSDDAVSGVGAANQYLHIAILVLEVIGNGAAIVVSQYLGSKRFMEASKISALAVTLNLIVGLVISTGFLLFSKHMMLAMNLQGDVLTYAQNYLSIVGGAIFLQAIINSLAAIIRVHGFTKQAMFISLGMNMIHIAGNYVLIFGKFGFPELGVQGAAISSAVSRLIALIVFFWLLYRVMEYRVKLQYYFTLSKEYIGKILKIGIPSAFEQVMYQACQIVFLYYATYLGTESLAARQYATNISMFTYLFAIAIGMGTAIIIGRLVGGGEKDEAYERLWKSVKWAIGVTLCMVALVITFRTQLMGLFTDNPYIIGLGASVLLLSVLLETGRTMNIVIINSLRAAGDAKYPVLIGAFSMVLMSLPLGYFFAFHLDMGLVGIWLAIAIDEWTRAIIMFFRWKSRAWERYALVKPEEQEENVSVQVQ	failed
PEQIWAKQQKDGSWLMDALIPLNELKYKLGLTTIEGEESEGFQTLNGFLTWWLGRLPHAGELVDYEGWQFEVLNVKHHRIVQVKVSRET	failed
